Results on two substances are retold here after patent US20050058645A1.

The target in assay [1] is T1, FLAG-tagged IL-4Rα-gp130 chimeric receptor.
T1 sequence: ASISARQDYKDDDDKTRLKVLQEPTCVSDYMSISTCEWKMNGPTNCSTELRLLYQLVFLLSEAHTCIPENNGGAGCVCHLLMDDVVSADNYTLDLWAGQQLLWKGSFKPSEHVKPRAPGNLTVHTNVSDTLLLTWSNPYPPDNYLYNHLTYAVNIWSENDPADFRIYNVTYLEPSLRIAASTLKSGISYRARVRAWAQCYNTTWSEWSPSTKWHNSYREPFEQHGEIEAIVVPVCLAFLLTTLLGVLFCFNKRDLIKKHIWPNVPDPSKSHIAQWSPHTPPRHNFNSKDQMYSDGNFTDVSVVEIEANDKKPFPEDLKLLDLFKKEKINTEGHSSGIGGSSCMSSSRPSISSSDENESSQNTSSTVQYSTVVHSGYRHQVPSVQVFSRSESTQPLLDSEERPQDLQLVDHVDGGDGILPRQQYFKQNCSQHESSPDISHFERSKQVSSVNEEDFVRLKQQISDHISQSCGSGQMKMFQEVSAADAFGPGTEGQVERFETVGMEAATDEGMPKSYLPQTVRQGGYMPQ
The assay is described as follows: cell-based or functional assay.

Assay [2] addresses FLAG-tagged IL-13Rα1-gp130 chimeric receptor (human). The assay is described as follows: cell-based or functional assay.

IL-4 (species not stated) (ligand), sequence (P05112 25-153): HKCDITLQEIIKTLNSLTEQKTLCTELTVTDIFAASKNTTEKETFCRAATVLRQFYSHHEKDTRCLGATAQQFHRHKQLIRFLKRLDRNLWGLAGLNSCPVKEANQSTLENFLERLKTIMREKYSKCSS

In the case of IL-4 (species not stated) (ligand), the 50% of maximal activity, STAT-3 luciferase reporter, lines 3.1.2 and 3.2.4 in assay [1] fell in the range of 2 to 4 ng/mL. IL-13 (species not stated) (ligand) came in with a 50% of maximal activity, STAT-3 luciferase reporter, lines 3.1.2 and 3.2.4 in assay [2] of 100 to 200 pg/mL.
